Article PMC10308189 (Bio-protocol, 2023)

Biological target: the molecule itself
Test: SEC

B1: human amphiphysin 1 N-BAR domain (1-247) (domain or fragment, UniProt P49418 1-247, looked up)
chain: MADIKTGIFAKNVQKRLNRAQEKVLQKLGKADETKDEQFEEYVQNFKRQEAEGTRLQRELRGYLAAIKGMQEASMKLTESLHEVYEPDWYGREDVKMVGEKCDVLWEDFHQKLVDGSLLTLDTYLGQFPDIKNRIAKRSRKLVDYDSARHHLEALQSSKRKDESRISKAEEEFQKAQKVFEEFNVDLQEELPSLWSRRVGFYVNTFKNVSSLEAKFHKEIAVLCHKLYEVMTKLGDQHADKAFTIQG
**Q.** How did the “stoichiometry N” value turn out when B1 was run?
**A.** 2
